In PMC3962721:

Assays:
DDB2 (FLAG-tagged, in …) [1] = target: T1, DDB2 (FLAG-tagged, in DDB.com);DDB1;Cul4A;Roc1 (Homo sapiens?;Homo sapiens?;Homo …, UniProt Q92466;Q16531;Q13619;P62877 1-427;1-1140;1-759;1-108, |||); assay: EMSA
DDB2 (FLAG-tagged, in …) [2] = target: T1, DDB2 (FLAG-tagged, in …); assay: EMSA; remark: listed apart in the source
DDB2 (FLAG-tagged, in …) [3] = target: T1, DDB2 (FLAG-tagged, in …); assay: competition
DDB2 (FLAG-tagged, in …) [4] = target: T1, DDB2 (FLAG-tagged, in …); assay: competition; remark: listed apart in the source

T1 sequence (Q92466 whole entry, chain 1 of 4): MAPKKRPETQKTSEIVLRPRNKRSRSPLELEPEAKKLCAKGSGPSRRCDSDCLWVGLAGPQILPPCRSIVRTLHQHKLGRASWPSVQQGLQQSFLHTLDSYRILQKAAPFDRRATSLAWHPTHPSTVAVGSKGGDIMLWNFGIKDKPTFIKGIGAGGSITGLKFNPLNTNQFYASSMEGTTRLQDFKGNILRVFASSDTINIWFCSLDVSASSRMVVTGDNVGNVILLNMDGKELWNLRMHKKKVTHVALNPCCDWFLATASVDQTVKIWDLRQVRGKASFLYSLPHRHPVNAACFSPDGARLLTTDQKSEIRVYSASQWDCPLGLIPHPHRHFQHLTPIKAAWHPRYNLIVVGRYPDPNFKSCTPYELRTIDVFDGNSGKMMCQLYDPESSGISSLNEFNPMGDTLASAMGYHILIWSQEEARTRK
T1 sequence (Q16531 whole entry, chain 2 of 4): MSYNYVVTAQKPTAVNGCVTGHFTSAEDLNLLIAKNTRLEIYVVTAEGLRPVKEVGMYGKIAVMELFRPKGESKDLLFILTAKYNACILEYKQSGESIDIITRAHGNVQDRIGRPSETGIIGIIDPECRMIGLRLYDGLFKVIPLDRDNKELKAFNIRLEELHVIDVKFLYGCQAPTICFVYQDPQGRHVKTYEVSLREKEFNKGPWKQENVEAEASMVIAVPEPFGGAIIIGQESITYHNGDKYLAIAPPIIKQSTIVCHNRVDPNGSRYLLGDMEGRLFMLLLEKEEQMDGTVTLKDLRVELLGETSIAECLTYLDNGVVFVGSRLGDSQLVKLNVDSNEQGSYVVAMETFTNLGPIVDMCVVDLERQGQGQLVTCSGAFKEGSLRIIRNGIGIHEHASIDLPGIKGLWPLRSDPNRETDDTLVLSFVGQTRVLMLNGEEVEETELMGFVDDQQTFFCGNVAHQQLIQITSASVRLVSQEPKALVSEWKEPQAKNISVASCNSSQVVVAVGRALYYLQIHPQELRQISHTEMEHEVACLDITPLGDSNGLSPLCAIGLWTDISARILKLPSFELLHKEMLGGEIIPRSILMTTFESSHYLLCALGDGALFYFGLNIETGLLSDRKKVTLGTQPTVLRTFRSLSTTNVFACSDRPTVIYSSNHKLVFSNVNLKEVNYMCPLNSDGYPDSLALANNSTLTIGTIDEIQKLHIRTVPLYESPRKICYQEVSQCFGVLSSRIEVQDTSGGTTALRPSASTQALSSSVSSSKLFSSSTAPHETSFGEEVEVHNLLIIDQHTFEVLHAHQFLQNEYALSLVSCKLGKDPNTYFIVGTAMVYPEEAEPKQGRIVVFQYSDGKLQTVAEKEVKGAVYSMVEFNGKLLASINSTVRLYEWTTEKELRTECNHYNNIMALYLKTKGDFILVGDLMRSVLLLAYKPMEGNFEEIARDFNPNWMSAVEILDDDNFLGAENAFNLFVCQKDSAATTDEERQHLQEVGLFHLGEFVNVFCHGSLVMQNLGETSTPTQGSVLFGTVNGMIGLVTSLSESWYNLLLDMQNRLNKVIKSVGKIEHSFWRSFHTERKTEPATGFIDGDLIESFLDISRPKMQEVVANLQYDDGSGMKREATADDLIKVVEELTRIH
T1 sequence (Q13619 whole entry, chain 3 of 4): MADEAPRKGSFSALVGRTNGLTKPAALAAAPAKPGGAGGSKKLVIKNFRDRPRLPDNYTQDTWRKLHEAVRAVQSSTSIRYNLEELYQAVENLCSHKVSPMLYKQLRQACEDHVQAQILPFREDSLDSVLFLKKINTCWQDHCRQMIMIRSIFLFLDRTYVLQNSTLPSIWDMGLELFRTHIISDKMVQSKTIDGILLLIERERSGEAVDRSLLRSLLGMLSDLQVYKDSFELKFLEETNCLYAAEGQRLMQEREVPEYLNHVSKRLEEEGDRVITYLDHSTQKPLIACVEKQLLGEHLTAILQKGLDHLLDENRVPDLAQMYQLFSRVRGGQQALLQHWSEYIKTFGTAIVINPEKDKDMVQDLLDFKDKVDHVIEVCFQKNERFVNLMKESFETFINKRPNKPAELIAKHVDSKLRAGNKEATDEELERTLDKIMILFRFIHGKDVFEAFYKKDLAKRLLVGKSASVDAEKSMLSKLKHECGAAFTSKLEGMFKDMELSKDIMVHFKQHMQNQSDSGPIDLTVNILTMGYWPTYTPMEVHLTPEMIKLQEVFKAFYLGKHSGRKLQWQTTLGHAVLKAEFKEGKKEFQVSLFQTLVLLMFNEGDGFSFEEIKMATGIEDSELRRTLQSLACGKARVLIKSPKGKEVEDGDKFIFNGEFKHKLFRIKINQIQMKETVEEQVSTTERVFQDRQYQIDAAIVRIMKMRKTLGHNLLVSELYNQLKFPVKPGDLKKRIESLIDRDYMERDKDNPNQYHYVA
T1 sequence (P62877 whole entry, chain 4 of 4): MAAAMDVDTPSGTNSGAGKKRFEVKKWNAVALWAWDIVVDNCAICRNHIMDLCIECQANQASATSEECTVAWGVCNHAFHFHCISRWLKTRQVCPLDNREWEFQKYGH

B1: Bcl-2 probe (BCP1) (dsDNA)
DNA 1: ATTAGGAGCTTGAAGCCTTTCAAT
DNA 2: ATTGAAAGGCTTCAAGCTCCTAAT
DDB2 (FLAG-tagged, in …) [1]
  binding result: binds

B2: MnSOD probe (dsDNA)
DNA 1: GAGGCTAGCCTGCAGCCTCCTTTCTCC
DNA 2: GGAGAAAGGAGGCTGCAGGCTAGCCTC
DDB2 (FLAG-tagged, in …) [2]
  binding result: binds

B3: Ow (unlabeled wild-type BCP1 competitor) (dsDNA)
DNA 1: ATTAGGAGCTTGAAGCCTTTCAAT
DNA 2: ATTGAAAGGCTTCAAGCTCCTAAT
DDB2 (FLAG-tagged, in …) [3]
  binding result: binds

B4: Om (unlabeled mutant BCP1 competitor) (dsDNA)
DNA 1: ATTAGGATATTGAAGCCTTTCAAT
DNA 2: ATTGAAAGGCTTCAATATCCTAAT
DDB2 (FLAG-tagged, in …) [4]
  binding result: no binding
